Publication PMC4659947, “Asparagine requirement in Plasmodium berghei as a target to prevent malaria transmission and liver infections” (Nature Communications, 2015)

Substrate: N[C@@H](CC(=O)O)C(=O)O
Experiment: purified protein
Format: biochemical, Plasmodium berghei
Details: 5 mM glutamine as amino donor, 10 mM ATP, 10 mM MgCl2, 50 mM Tris pH 8.0

B1: PbAS (recombinant P. berghei asparagine synthetase) (Plasmodium berghei ANKA) (protein)
chain: MCGILAIFHSSIETNRLRRKALRLSKILRHRGPDWNGIVVEENGDGTTNVLTHERLSIVDVLSGQQPLYDDKKEICLTINGEIYNHLELRKLVKQDILDALKSKSDCAIIPNLYKIYKEKLPCMLDGIFAGVISDKKYNTFFAFRDPIGICPLYIGYAADGSIWFASEFKALRIYCVRYVAFPPGHYYMCNNGKGEFVRYYNPNWWKLNSPIPNNKIDLEKIRITLENAVIKRLMGDVPFGVLLSGGLDSSIIASIISRHLKSIQTGTINNINGACVGKNNKNLNALKSFSIGLKDSPDLKAAKEVSDFLNTDHTEFHFTVDQGIDTLHDVIYHIETYDITTIRASTPMYILSRLIKSSCIKMVLSGEGSDEIFGGYLYFHKAPNAEEFHRELQRKIHDLHIYDVLRANKSTMAFGIEARVPFLDLEFLDLVMNIDPKEKMCSNNRIEKDILRRAFSGYLPDHILYRQKEQFSDGVGYNWIDGLKEYAEKKVSDAQFSRAPFLFPYNTPKTKEAYLYRCIFYQCFPEQCAQEFVPEGPSIACSTSKAIEWDEQFKVNPDQSGRYVLDVHKHSKNIEDIKAA
notes: full-length cDNA without stop codon in pET-20b(+), BamHI/XhoI, C-terminal 6xHis kept, E. coli Rosetta2DE3pLysS, Ni-NTA, 67 kDa; domains 1-202 and 203-581
Km: 260 ± 50 µM
